{"source": "patent US20230287068A1", "about": "“KERATIN BD-6, PREPARATION METHOD THEREFOR AND PHARMACEUTICAL COMPOSITION AND USE THEREOF” (INSTITUTE OF MATERIAL MEDICA, CHINESE ACADEMY OF MEDICAL …, priority 2019, published 2023)", "molecules": {"B1": {"name": "BD-6: recombinant keratin with the amino acid sequence SEQ ID NO:1, expressed in E. coli, about 45 kD; protein of Example 4 (protein, listed as Bos taurus)", "chain": "MTTTIRHFSSGSIKGSSGLAGGSSRSCRVSGSLGGGSCRLGSAGGLGSGLGGSSYSSCYSFGSGGSYGSGGYVSGGYGGGFGGVDGLLVGGEKATMQNLNDRLASYLDKVRALEEANTELELKIRDWYQKQAPGPAPDYSSYFKTIEDLRNKIHTATVDNANLLLQIDNARLAADDFRTKFETEQALRVSVEADINGLRRVLDELTLARADLEMQIENLKEELAYLRKNHEEEMKALRGQVGGEINVEMDAAPGVDLSRILNEMRDQYEKMAEKNRKDAEDWFFSKTEELNREVATNSELVQSGKSEISELRRTLQALEIELQSQLSMKASLEGSLAETENRYCMQLSQIQGLIGSVEEQLAQLRCEMEQQNQEYKILLDVKTRLEQEIATYRRLLEGEDAHLTQYKTKEPVTTRQVRTIVEEVQDGRVISSREQVHQTSH"}}, "key": {"[1]": {"system": "acetic acid writhing of ICR mice", "experiment": "Acetic acid writhing test in ICR mice", "format": "in vivo", "details": "for Frequency of writhing / Writhing incubation period: 0.6% acetic acid i.p., within 15 minutes", "procedure": "• Animals: male ICR mice; • Drugs and reagents: aspirin, physiological saline, glacial acetic acid, protein BD-6. • Experiment grouping: • Model group; • Aspirin 300 mg/kg group; • Protein BD-6, 50 mg/kg group, 200 mg/kg group.\nOne day after the experimental animals adapt to the environment, Aspirin 300 mg/kg, protein BD-6 50 mg/kg, 200 mg/kg were given orally one hour in advance, and the administration volume was 10 ml/kg; Then, 0.6% acetic acid solution was injected intraperitoneally, and the incubation period (seconds) and frequency of writhing in the animal was observed within 15 minutes.\nCalculate the mean and standard error of the data in each group. Compared with the model group by TTEST, P<0.05 was considered as statistically different."}, "[2]": {"system": "PLO-induced epilepsy in mice", "experiment": "Pilocarpine (PLO) induced convulsive epilepsy in mice", "format": "in vivo, ICR mice", "design": "mortality rate: unit not given here", "details": "for Cases of deaths / Grade IV seizure rate / mortality rate / Cases of Grade IV / Grade II seizure incubation period / Grade III seizure incubation period / Grade IV seizure incubation period: PLO 225 mg/kg i.p.; for Cases of deaths / Grade IV seizure rate / mortality rate / Cases of Grade IV: 10 mice; for Cases of Grade IV: 30 min observation; for Grade II seizure incubation period / Grade III seizure incubation period / Grade IV seizure incubation period: mean±SEM; for Grade IV seizure incubation period: maximum 1800 seconds", "procedure": "• Animals: male ICR mice; • Drugs: Pilocarpine HCl (PLO, pilocarpine, pilocarpine hydrochloride), Diazepam (diazepam tablets), protein BD-6. • Experiment grouping: • Model group: • Diazepam 2 mg/kg group; • Protein BD-6, 50 mg/kg group, 200 mg/kg group.\nThe drug was administered once in the afternoon the day before modeling, PLO-225 mg/kg (modeling agent) was injected intraperitoneally 1 hour after the test drug was administered intragastrically on the day of modeling. And positive drug can be administered once 20 minutes before modeling. Observe for 30 minutes after PLO injection.\nObservation indicators: ①Seizure situation: the time of seizures from Grade II to Grade IV; ②the time to death.\n(§1) Seizure grade: Refer to Racine grading standard: Grade 0: No response; Grade I: manifested as twitching of facial muscles or the corners of the mouth; Grade II: can nod; Grade III: twitching of one limb; Grade IV: rigidity or body twitching; Grade V: generalized epilepsy (generalized tonic seizures).\nCount the number of Grade IV seizures and deaths in each group of mice in the experiment; Grade II, III and IV incubation period. […] Chi-square test was used for statistics of the number of cases. The mean value and standard error of the incubation period were calculated, and TTEST was used to compare the model group with other groups. P<0.05 was considered as a significant difference."}, "[3]": {"system": "yeast-induced fever model in rats", "experiment": "Yeast-induced fever model in SD rats", "format": "in vivo", "details": "for Body temperature 2 hours after modeling / Body temperature 4 hours after modeling / Body temperature 6 hours after modeling / Body temperature 8 hours after modeling: 20% yeast s.c., SD rats", "procedure": "• Medicines: yeast (OXOID LP0021), aspirin (SIGMA A2093), protein BD-6; • Instruments: electronic balance (SARTORIUS BP121S type), electronic clinical thermometer (CITIZEN CT-513W type). • Experiment grouping: • Normal control group; • Model group: yeast fever model; • Positive control group: Aspirin 300 mg/kg group; • Protein BD-6, 10 mg/kg group, 50 mg/kg group.\nPreparation of experimental animals: After the experimental animals adapt to the experimental environment (temperature 22° C.±2° C., relative humidity 50%±2%) for 1 day. Pre-adaptation to measure rectal temperature at 8:00 and 15:00, rats were fasted and water was taken freely 12 h before experiment, and let the animal to empty its feces before measuring the rectal temperature. Apply petroleum jelly to the electronic thermometer probe before each temperature measurement. Insert the rat rectum 2 cm (can be marked at 2 cm to ensure that the depth of each insertion is consistent), and record the body temperature after the reading is stable.\nSubcutaneous injection of dry yeast to replicate rat fever model: The body temperature of the rats was measured before modeling. Qualified rats with a body temperature of 36.2-37.3° C. were selected and randomly divided into groups with 8 rats in each group. After oral administration of aspirin and different doses of protein BD-6, 20% yeast suspension (10 ml/kg) was injected subcutaneously immediately, and the normal control group was injected intraperitoneally with an equal volume of normal saline. The body temperatures of the rats were monitored after 2 hours for a total of 8 hours.\nAccording to the body temperature measured at each time point on the day of the experiment, calculate the mean, standard deviation and standard error of the body temperature of each group of rats. The data of each group was compared with TTEST, and P<0.05 was considered as a significant difference."}, "[4]": {"system": "PTZ-induced epilepsy in mice", "experiment": "Pentylenetetrazole (PTZ) induced epilepsy in mice", "format": "in vivo, ICR mice", "details": "for Cases of deaths / Grade IV seizure rate / mortality rate / Cases of Grade IV / Grade III seizure incubation period / Grade IV seizure incubation period: PTZ 65 mg/kg i.p.; for Cases of deaths / Grade IV seizure rate / mortality rate / Cases of Grade IV: 10 mice; for Cases of Grade IV: 15 min observation; for Grade III seizure incubation period / Grade IV seizure incubation period: mean±SEM; for Grade IV seizure incubation period: maximum 900 seconds", "procedure": "• Animals: male ICR mice; • Medicines: Pentylenetetrazol (PTZ), Retigabine, Protein BD-6. • Experiment grouping: • Model group; • Retigabine 60 mg/kg group; • Protein BD-6, 50 mg/kg group, 200 mg/kg group;\nThe drug was administered once in the afternoon the day before modeling, On the day of modeling, PTZ-65 mg/kg (modeling agent) was injected intraperitoneal 1 hour after the test drug was administered intragastrically, and the positive drug can be administered once half an hour before modeling. Continue to observe for 15 minutes after injection of PTZ.\nObservation index: ①Seizure situation: the time of seizures from Grade III to Grade VI; ②Death situation\nas §1\nCount the cases of seizures and deaths in each group of mice in the experiment; Grade III and IV incubation period. The incubation period of mice that have not attacked to Grade IV is recorded as the maximum of 900 seconds. Chi-square test was used for statistics of the number of cases. Calculate the mean and standard error of the incubation period. Use TTEST to compare the model group with other groups, and P<0.05 is considered as a significant difference."}}, "data": [{"molecule": "B1", "values": [{"measurement": "Frequency of writhing", "setting": "[1]; BD-6 50 mg/kg oral", "value": "31.1±3.7", "unit": "times"}, {"measurement": "Writhing incubation period", "setting": "[1]; BD-6 50 mg/kg oral", "value": "220.7 ± 22.2", "unit": "s"}, {"measurement": "Frequency of writhing", "setting": "[1]; BD-6 200 mg/kg oral", "value": "18.6±2.7^∗∗ times"}, {"measurement": "Writhing incubation period", "setting": "[1]; BD-6 200 mg/kg oral", "value": "193.2 ± 17.3", "unit": "s"}, {"measurement": "Times of writhing vs model group (in words)", "setting": "[1]; BD-6 200 mg/kg, P<0.05", "value": "can significantly reduce the times of writhing in mice"}, {"measurement": "Cases of deaths", "setting": "[2]; BD-6 50 mg/kg intragastric", "value": 0}, {"measurement": "Grade IV seizure rate", "setting": "[2]; BD-6 50 mg/kg intragastric", "value": 40, "unit": "%"}, {"measurement": "mortality rate", "setting": "[2]; BD-6 50 mg/kg intragastric", "value": 0}, {"measurement": "Cases of Grade IV", "setting": "[2]; BD-6 50 mg/kg intragastric", "value": 4}, {"measurement": "Grade II seizure incubation period", "setting": "[2]; BD-6 50 mg/kg intragastric", "value": "110±7^∗ s"}, {"measurement": "Grade III seizure incubation period", "setting": "[2]; BD-6 50 mg/kg intragastric", "value": "169±9^∗ s"}, {"measurement": "Grade IV seizure incubation period", "setting": "[2]; BD-6 50 mg/kg intragastric", "value": "1439±155^∗ s"}, {"measurement": "Incubation period of epilepsy Grade II, III and IV vs model group (in words)", "setting": "[2]; BD-6 50 mg/kg, PLO model", "value": "statistically different from the model group"}, {"measurement": "Cases of deaths", "setting": "[2]; BD-6 200 mg/kg intragastric", "value": 0}, {"measurement": "Grade IV seizure rate", "setting": "[2]; BD-6 200 mg/kg intragastric", "value": 50, "unit": "%"}, {"measurement": "mortality rate", "setting": "[2]; BD-6 200 mg/kg intragastric", "value": 0}, {"measurement": "Cases of Grade IV", "setting": "[2]; BD-6 200 mg/kg intragastric", "value": 5}, {"measurement": "Grade II seizure incubation period", "setting": "[2]; BD-6 200 mg/kg intragastric", "value": "99 ± 6", "unit": "s"}, {"measurement": "Grade III seizure incubation period", "setting": "[2]; BD-6 200 mg/kg intragastric", "value": "157 ± 8", "unit": "s"}, {"measurement": "Grade IV seizure incubation period", "setting": "[2]; BD-6 200 mg/kg intragastric", "value": "1279 ± 181", "unit": "s"}, {"measurement": "Body temperature 2 hours after modeling", "setting": "[3]; BD-6 10 mg/kg oral", "value": "37.0±0.1", "unit": "°C"}, {"measurement": "Body temperature 4 hours after modeling", "setting": "[3]; BD-6 10 mg/kg oral", "value": "37.4±0.1", "unit": "°C"}, {"measurement": "Body temperature 6 hours after modeling", "setting": "[3]; BD-6 10 mg/kg oral", "value": "37.3±0.09", "unit": "°C"}, {"measurement": "Body temperature 8 hours after modeling", "setting": "[3]; BD-6 10 mg/kg oral", "value": "37.5±0.1", "unit": "°C"}, {"measurement": "Body temperature 2 hours after modeling", "setting": "[3]; BD-6 50 mg/kg oral", "value": "37.0±0.2", "unit": "°C"}, {"measurement": "Body temperature 4 hours after modeling", "setting": "[3]; BD-6 50 mg/kg oral", "value": "37.4±0.1", "unit": "°C"}, {"measurement": "Body temperature 6 hours after modeling", "setting": "[3]; BD-6 50 mg/kg oral", "value": "37.4±0.1", "unit": "°C"}, {"measurement": "Body temperature 8 hours after modeling", "setting": "[3]; BD-6 50 mg/kg oral", "value": "37.3±0.1", "unit": "°C"}, {"measurement": "Effect on increase in body temperature (in words)", "setting": "[3]; BD-6 10 and 50 mg/kg, most time points after modeling, P<0.05 vs model group", "value": "can inhibit the increase in body temperature of model rats to varying degrees"}, {"measurement": "Incubation period of Grade III epilepsy vs model group (in words)", "setting": "[4]; BD-6 50 mg/kg and 200 mg/kg, PTZ model", "value": "have statistical differences compared with the model group"}, {"measurement": "Cases of deaths", "setting": "[4]; BD-6 50 mg/kg intragastric", "value": 0}, {"measurement": "Grade IV seizure rate", "setting": "[4]; BD-6 50 mg/kg intragastric", "value": 60, "unit": "%"}, {"measurement": "mortality rate", "setting": "[4]; BD-6 50 mg/kg intragastric", "value": 0, "unit": "%"}, {"measurement": "Cases of Grade IV", "setting": "[4]; BD-6 50 mg/kg intragastric", "value": 6}, {"measurement": "Grade III seizure incubation period", "setting": "[4]; BD-6 50 mg/kg intragastric", "value": "74±5^∗∗ s"}, {"measurement": "Grade IV seizure incubation period", "setting": "[4]; BD-6 50 mg/kg intragastric", "value": "440 ± 128", "unit": "s"}, {"measurement": "Cases of deaths", "setting": "[4]; BD-6 200 mg/kg intragastric", "value": 1}, {"measurement": "Grade IV seizure rate", "setting": "[4]; BD-6 200 mg/kg intragastric", "value": 90, "unit": "%"}, {"measurement": "mortality rate", "setting": "[4]; BD-6 200 mg/kg intragastric", "value": 10, "unit": "%"}, {"measurement": "Cases of Grade IV", "setting": "[4]; BD-6 200 mg/kg intragastric", "value": 9}, {"measurement": "Grade III seizure incubation period", "setting": "[4]; BD-6 200 mg/kg intragastric", "value": "69±6^∗ s"}, {"measurement": "Grade IV seizure incubation period", "setting": "[4]; BD-6 200 mg/kg intragastric", "value": "201 ± 81", "unit": "s"}]}]}
